Assay results as given in publication PMC10145227.

How the values were obtained:
[1] = purified protein yield from P. pastoris; settings: control: rDSPAα1
[2] = nanoDSF, F350/F330 ratio and scattering; settings: control: rDSPAα1
[3] = S-2765 activity after 1 h at 30-90 °C or pH 3-12; settings: control: rDSPAα1
[4] = fibrin plate lysis area, t-PA standard; settings: control: rDSPAα1
[5] = ratio of S-2765 Kcat/Km, fibrin/fibrinogen; settings: control: rDSPAα1
[6] = S-2765 hydrolysis kinetics, fibrinogen cofactor; settings: control: rDSPAα1
[7] = S-2765 hydrolysis kinetics, no cofactor; settings: glycan lost; control: rDSPAα1
[8] = S-2765 hydrolysis kinetics, fibrin cofactor; settings: control: rDSPAα1
[9] = thrombus length, dry and wet weight; settings: control: rDSPAα1
[10] = recanalization rate, FeCl3 carotid thrombosis; settings: control: rDSPAα1
[11] = ELISA, slope of concentration versus time; settings: control: rDSPAα1
[12] = H&E thrombus section score (higher is worse); settings: control: rDSPAα1
[13] = ELISA time course after dosing; settings: control: rDSPAα1
[14] = hindlimb vein bleeding time after dosing; settings: control: rDSPAα1
[15] = plasma plasminogen ELISA, slope versus time; settings: control: rDSPAα1
[16] = blood routine examination, 1 h after dosing; settings: glycan gained; control: rDSPAα1

B1: DSPAα1: ANGlyα1 + U (protein)
parent chain: MVNTMKTKLLCVLLLCGAVFSLPRQETYRQLARGSRAYGVACKDEITQMTYRRQESWLRPEVRSKRVEHCQCDRGQARCHTVPVNSCSEPRCFNGGTCWQAVYFSDFVCQCPAGYTGKRCEVDTRATCYEGQGVTYRGTWSTAESRVECINWNSSLLTRRTYNGRMPDAFNLGLGNHNYCRNPNGAPKPWCYVIKAGKFTSESCSVPVCSKATCGLRKYKEPQLHSTGGLFTDITSHPWQAAIFAQNRRSSGERFLCGGILISSCWVLTAAHCFQESYLPDQLKVVLGRTYRVKPGEEEQTFKVKKYIVHKEFDDDTYNNDIALLQLKSDSPQCAQESDSVRAICLPEANLQLPDWTECELSGYGKHKSSSPFYSEQLKEGHVRLYPSSRCAPKFLFNKTVTNNMLCAGDTRSGEIYPNVHDACQGDSGGPLVCMNDNHMTLLGIISWGVGCGEKDVPGVYTKVTNYLGWIRDNMHL
[1]; glycan gained
  expression_or_secretion, percent_of_wt: no change
[2]; glycan gained
  stability_or_folding: no change
[3]; glycan gained
  stability_or_folding: no change
[4]; glycan gained
  enzymatic_activity, percent_of_wt: decreases

B2: DSPAα1: QNGlyα1-2 (protein)
parent chain: MVNTMKTKLLCVLLLCGAVFSLPRQETYRQLARGSRAYGVACKDEITQMTYRRQESWLRPEVRSKRVEHCQCDRGQARCHTVPVNSCSEPRCFNGGTCWQAVYFSDFVCQCPAGYTGKRCEVDTRATCYEGQGVTYRGTWSTAESRVECINWNSSLLTRRTYNGRMPDAFNLGLGNHNYCRNPNGAPKPWCYVIKAGKFTSESCSVPVCSKATCGLRKYKEPQLHSTGGLFTDITSHPWQAAIFAQNRRSSGERFLCGGILISSCWVLTAAHCFQESYLPDQLKVVLGRTYRVKPGEEEQTFKVKKYIVHKEFDDDTYNNDIALLQLKSDSPQCAQESDSVRAICLPEANLQLPDWTECELSGYGKHKSSSPFYSEQLKEGHVRLYPSSRCAPKFLFNKTVTNNMLCAGDTRSGEIYPNVHDACQGDSGGPLVCMNDNHMTLLGIISWGVGCGEKDVPGVYTKVTNYLGWIRDNMHL
[1]; glycan lost
  expression_or_secretion, percent_of_wt: decreases
[5]; glycan lost
  other: fibrin selectivity, other: ratio Fbn/Fbg: decreases, 8.500 vs 20.800
[2]; glycan lost
  stability_or_folding: no change
[3]; glycan lost
  stability_or_folding: no change
[4]; glycan lost
  enzymatic_activity, percent_of_wt: decreases

B3: DSPAα1: QNGlyα1-1 (protein)
parent chain: MVNTMKTKLLCVLLLCGAVFSLPRQETYRQLARGSRAYGVACKDEITQMTYRRQESWLRPEVRSKRVEHCQCDRGQARCHTVPVNSCSEPRCFNGGTCWQAVYFSDFVCQCPAGYTGKRCEVDTRATCYEGQGVTYRGTWSTAESRVECINWNSSLLTRRTYNGRMPDAFNLGLGNHNYCRNPNGAPKPWCYVIKAGKFTSESCSVPVCSKATCGLRKYKEPQLHSTGGLFTDITSHPWQAAIFAQNRRSSGERFLCGGILISSCWVLTAAHCFQESYLPDQLKVVLGRTYRVKPGEEEQTFKVKKYIVHKEFDDDTYNNDIALLQLKSDSPQCAQESDSVRAICLPEANLQLPDWTECELSGYGKHKSSSPFYSEQLKEGHVRLYPSSRCAPKFLFNKTVTNNMLCAGDTRSGEIYPNVHDACQGDSGGPLVCMNDNHMTLLGIISWGVGCGEKDVPGVYTKVTNYLGWIRDNMHL
[1]; glycan lost
  expression_or_secretion, percent_of_wt: decreases
[6]; glycan lost
  enzymatic_activity, kcat_Km: no change, 292.580 ± 1.780 vs 282.240 ± 13.070
[7]
  enzymatic_activity, kcat_Km: no change, 38.800 ± 0.780 vs 34.830 ± 2.350
[5]; glycan lost
  other: fibrin selectivity, other: ratio Fbn/Fbg: decreases, 1.100 vs 20.800
[2]; glycan lost
  stability_or_folding: no change
[3]; glycan lost
  stability_or_folding: no change
[8]; glycan lost
  enzymatic_activity, kcat_Km: decreases, 333.760 ± 20.680 vs 5883.440 ± 983.570
[4]; glycan lost
  enzymatic_activity, percent_of_wt: decreases

B4: DSPAα1: QNGlyα1 (protein)
parent chain: MVNTMKTKLLCVLLLCGAVFSLPRQETYRQLARGSRAYGVACKDEITQMTYRRQESWLRPEVRSKRVEHCQCDRGQARCHTVPVNSCSEPRCFNGGTCWQAVYFSDFVCQCPAGYTGKRCEVDTRATCYEGQGVTYRGTWSTAESRVECINWNSSLLTRRTYNGRMPDAFNLGLGNHNYCRNPNGAPKPWCYVIKAGKFTSESCSVPVCSKATCGLRKYKEPQLHSTGGLFTDITSHPWQAAIFAQNRRSSGERFLCGGILISSCWVLTAAHCFQESYLPDQLKVVLGRTYRVKPGEEEQTFKVKKYIVHKEFDDDTYNNDIALLQLKSDSPQCAQESDSVRAICLPEANLQLPDWTECELSGYGKHKSSSPFYSEQLKEGHVRLYPSSRCAPKFLFNKTVTNNMLCAGDTRSGEIYPNVHDACQGDSGGPLVCMNDNHMTLLGIISWGVGCGEKDVPGVYTKVTNYLGWIRDNMHL
[1]; glycan lost
  expression_or_secretion, percent_of_wt: decreases
[9]; glycan lost
  other: thrombolytic efficacy in rats: abolishes
[5]; glycan lost
  other: fibrin selectivity, other: ratio Fbn/Fbg: decreases, 0.700 vs 20.800
[2]; glycan lost
  stability_or_folding: no change
[10]; glycan lost
  other: thrombolytic efficacy in rats, other: recanalized rats: abolishes, 0/8 vs 4/8
[11]; glycan lost
  other: plasma FDP rise in rats: decreases
[12]; glycan lost
  other: thrombolytic efficacy in rats, other: total score: decreases, 103.333 ± 0.816 vs 61.667 ± 1.966
[3]; glycan lost
  stability_or_folding: no change
[13]; glycan lost
  other: plasma D-dimer course in rats: increases
  other: plasma α2-AP concentration in rats: no change
[14]; glycan lost
  other: bleeding time in rats: increases
[15]; glycan lost
  other: plasminogen activation in rats: abolishes
[4]; glycan lost
  enzymatic_activity, percent_of_wt: abolishes

B5: DSPAα1: ANGlyα1 + 2 (protein)
parent chain: MVNTMKTKLLCVLLLCGAVFSLPRQETYRQLARGSRAYGVACKDEITQMTYRRQESWLRPEVRSKRVEHCQCDRGQARCHTVPVNSCSEPRCFNGGTCWQAVYFSDFVCQCPAGYTGKRCEVDTRATCYEGQGVTYRGTWSTAESRVECINWNSSLLTRRTYNGRMPDAFNLGLGNHNYCRNPNGAPKPWCYVIKAGKFTSESCSVPVCSKATCGLRKYKEPQLHSTGGLFTDITSHPWQAAIFAQNRRSSGERFLCGGILISSCWVLTAAHCFQESYLPDQLKVVLGRTYRVKPGEEEQTFKVKKYIVHKEFDDDTYNNDIALLQLKSDSPQCAQESDSVRAICLPEANLQLPDWTECELSGYGKHKSSSPFYSEQLKEGHVRLYPSSRCAPKFLFNKTVTNNMLCAGDTRSGEIYPNVHDACQGDSGGPLVCMNDNHMTLLGIISWGVGCGEKDVPGVYTKVTNYLGWIRDNMHL
[1]; glycan gained
  expression_or_secretion, percent_of_wt: no change
[16]
  other: platelet count in rats, other: PLT: no change, 712.667 ± 16.010 vs 724.333 ± 50.817
[6]; glycan gained
  enzymatic_activity, kcat_Km: decreases, 248.960 ± 6.330 vs 282.240 ± 13.070
[9]; glycan gained
  other: thrombolytic efficacy in rats: decreases
[5]; glycan gained
  other: fibrin selectivity, other: ratio Fbn/Fbg: decreases, 13.100 vs 20.800
[2]; glycan gained
  stability_or_folding: no change
[10]; glycan gained
  other: thrombolytic efficacy in rats, other: recanalized rats: decreases, 3/8 vs 4/8
[11]; glycan gained
  other: plasma FDP rise in rats: increases
[12]; glycan gained
  other: thrombolytic efficacy in rats, other: total score: decreases, 92.500 ± 1.049 vs 61.667 ± 1.966
[3]; glycan gained
  stability_or_folding: no change
[13]; glycan gained
  other: plasma D-dimer course in rats: changes
  other: plasma PAI concentration in rats: no change
  other: plasma α2-AP concentration in rats: decreases
[14]; glycan gained
  other: bleeding time in rats: no change
[15]; glycan gained
  other: plasminogen activation in rats: decreases
[8]; glycan gained
  enzymatic_activity, kcat_Km: decreases, 3257.040 ± 561.250 vs 5883.440 ± 983.570, The Kcat/Km of ANGlyα1 + 2 was 79% of rDSPAα1 when fibrin was used as a cofactor
[4]; glycan gained
  enzymatic_activity, percent_of_wt: decreases
